Results: the DeepSol protein solubility set

Assay: soluble on expression in E. coli; label from the status in PepcDB or PDB records

Row | Sequence | soluble on expression in E. coli
1 | MDEMIFDPTMSKKKKKKKKPFMLDEEGDAQTEETQPSETKEVEPEPTEEKDVDADEEDSRKKDASDDLDDLNFFNQKKKKKKTKKIFDIDEAEEAIKDVKIESDAQEPAEPEDDLDIMLGNKKKKKKNVKFPEEDEILEKDEALEDEDSKKDDGISFSSQTAWAGSERDYTYEELLNRVFNIMREKNPDMVAGEKRKFVMKPPQVVRVGTKKTSFVNFTDICKLLHRQPKHLLAFLLAELGTSGSIDGNNQLVIKGRFQQKQIENVLRRYIKEYVTCHTCRSPDTILQKDTRLYFLQCETCHSRCSVASIKTGFQAVTGKRAQLRAKAN | soluble
2 | MSNKLDGINKMITAKHKQMDDLYDEKREVKALIDESDELNHSIEQLYQHLGDRYHSSNMASRMEQFRDEFHFAKRRSTEALYEQQQQIQHGIRKAEEEMIDLEMRRNVEIETVTKEENKWKQLEHHHHHH | soluble
3 | MAHHHHHHMANRTDASAIKNFGSNPQYLISNIIRSKIYDSPYWKEKCFALTSESIIDQAINLKYVGGTYGGNRKPTRFLCLILKLLQIQPDKDIIYEYIKNEDFVYLRALGIFYLRLIGKSLEVYNHLEPILFDYRKIRMRLQNGTFEKIYMDVFVDNCLILNNFLDVDFPTLTKRQVLEENNLLQRKNLEYYKALLNISSDNELFKNNEDTTHNKNKEINKNKNEYKQRDMLERHKKINKYSSEDDHNYYHKKEGNYDKNKKHNKIYNHKYNNKYDDEERRHHSDYSSDMDRKSRKKEKKRTHSKYDHKKKKEKRNYSSDSKHSFTSSEYSVQNKKEEHDKKKKKLFFLKKQKKKNYHSSSQSNHSYDENKKDELSIDKWNEIRKELGMKPLK | soluble
4 | MAGLPDQRLANEALKRGDTVTAQQNYQQLAELGYSEAQVGLADIQVGTRDPAQIKQAEATYRAAADTSPRAQARLGRLLAAKPGATEAEHHEAESLLKKAFANGEGNTLIPLAMLYLQYPHSFPNVNAQQQISQWQAAGYPEAGLAQVLLYRTQGTYDQHLDDVERICKAALNTTDICYVELATVYQKKQQPEQQAELLKQMEAGVSRGTVTAQRVDSVARVLGDATLGTPDEKTAQALLEKIAPGYPASWVSLAQLLYDFPELGDVEQMMKYLDNGRAADQPRAELLLGKLYYEGKWVPADAKAAEAHFEKAVGREVAADYYLGQIYRRGYLGKVYPQKALDHLLTAARNGQNSADFAIAQLFSQGKGTKPDPLNAYVFSQLAKAQDTPEANDLATQLEAPLTPAQRAEGQRLVQQELAARGTLAQSTLQLHALQEEDGEESLLEHHHHHH | soluble
5 | MGNQAGSKTKLVIIQGPTASGKSELAVRLAEACGGDVVNADSMQVYRGMDIGTAKPSPELVARVPHHLYDIVDPDVNFTAADYRREAGRVITEIHSRGKRPILVGGTGLYIKTLIGGLAPSPGADDTIRAELEEDARSEGAAALHDRLAQVDPAAAARLHPNDRVRIVRALEVFLMTGKPLSEFQEEHRFADEPYDCLKLGISVERDDLYRRINERVNRMFAEGFVEEVSGLLNAGYSPDLKAMGAIGYKEVCAYLAGTCSLDEARELVQRNTRRYAKRQLTWFRKDPAIKWVEYPANFDSISTIAMKFFGLEHHHHHH | not soluble
6 | YYPKIAEEVYLATLDNGMSLSIIKKKGFIEKAAFLSTNFGALDNRFYIDGKLQTYPAGIAHFLEHKLFEDDQGRDVTLDFVKLGADVNAFTTLDRTTYYFSTIDHFEESLELLLKFTSEFTSSEDTVNHEKRIIEQEINMYQDDPDYRVYLGCLQSLYPNTILGQDIAGSIDSIKKITTKDLKNNFDYFYRPENCHLVLIGNFDIEQIYRFVKETRSEFTISHKTVEK | not soluble
7 | MHHHHHHGMASMTARPLSELVERGWAAALEPVADQVAHMGQFLRAEIAAGRRYLPAGSNVLRAFTFPFDNVRVLIVGQDPYPTPGHAVGLSFSVAPDVRPWPRSLANIFDEYTADLGYPLPSNGDLTPWAQRGVLLLNRVLTVRPSNPASHRGKGWEAVTECAIRALAARAAPLVAILWGRDASTLKPMLAAGNCVAIESPHPSPLSASRGFFGSRPFSRANELLVGMGAEPIDWRLP | soluble
8 | SGFEFHGYARSGVIMNDSGASTKSGAYITPAGETGGAIGRLGNQADTYVEMNLEHKQTLDNGATTRFKVMVADGQTSYNDWTASTSDLNVRQAFVELGNLPTFAGPFKGSTLWAGKRFDRDNFDIHWIDSDVVFLAGTGGGIYDVKWNDGLRSNFSLYGRNFGDIDDSSNSVQNYILTMNHFAGPLQMMVSGLRAKDNDERKDSNGNLAKGDAANTGVHALLGLHNDSFYGLRDGSSKTALLYGHGLGAEVKGIGSDGALRPGADTWRIASYGTTPLSENWSVAPAMLAQRSKDRYADGDSYQWATFNLRLIQAINQNFALAYEGSYQYMDLKPEGYNDRQAVNGSFYKLTFAPTFKVGSIGDFFSRPEIRFYTSWMDWSKKLNNYASDDALGSDGFNSGGEWSFGVQMETWF | soluble
9 | MSLKRLNLYIFGENNILDILIKNGSVFSGNNNEPESNNIGIKKSKIDFIGKESPESKKVIDAKDYIVTPGFIDIHTHSDISFLVDPEADSKLTQGVTFEFLGNCGMSFCAPLNSASKQTLSDRLSKYNSDVKIDWNDFTDWLNKIEKNIPSINVAAQLGHGVLRSYVMGMKAVSATPEDIEAMKNIVRSSIDQGVLGFSTGLWYAPGSYSHTEEIVEITKVVAEHDLLYSSHIRSESDDASGLFPAHAEAIEIGRRTGAKIQISHVKSVGPQFWGRGKELLEGMYKAREEGIDVAGDQYPYEWSSTPTSGCMFPRWSLEGGREKTLERLKDKNIREAIKSETINYINRFHGSAGCVLAEFSNDKKLEGLNLSEISEEFSCSPEEAAMRLYEISEGSFVLHSMEEQDVDTIGMSDIIAVASDGNSLRNTGPLSNGKPHPRSYGTNTRFIEDMVVNKKKVSISNAIYRMTSLPASRIGLKNRGEIKKGYFADINIFKPEELREKATYVDPHQYSTGMKWVLVNGKIALKDGKKIEGRFGKVVRSKEGEGHHHHHH | soluble
10 | MSLFINKEAELQWVREYARRSHATPFVIYGPEGCGKTALALEAVRRFSSWYAGGIALYIDGKARRAAEAVKSNVNIGDVLAEVGGLAGSVGRSAARLAVWLLGKIVEKIAERFAPMNILVVDELFSAVGVSEGALAVKYAKELGDRVLRSKKAELGEIPKPLAEASVSYLIFSSEGSSRRELSRHNWAHIALMWNMGERGFQQLGEILGAPDFSAAWRLCGGQPPLPFPISRAGLGRGKIPNSNREGHHHHHH | soluble
11 | MSGKLTVITGPMYSGKTTELLSFVEIYKLGKKKVAVFKPKIDSRYHSTMIVSHSGNGVEAHVIERPEEMRKYIEEDTRGVFIDEVQFFNPSLFEVVKDLLDRGIDVFCAGLDLTHKQNPFETTALLLSLADTVIKKKAVCHRCGEYNATLTLKVAGGEEEIDVGGQEKYIAVCRDCYNTLKKRV | soluble
12 | MEDDPVWRFDDRDVILYNIALGATTKQLKYVYENDSDFQVIPTFGHLITFNSGKSQNSFAKLLRNFNPMLLLHGEHYLKVHSWPPPTEGEIKTTFEPIATTPKGTNVVIVHGSKSVDNKSGELIYSNEATYFIRNCQADNKVYADRPAFATNQFLAPKRAPDYQVDVPVSEDLAALYRLSGDRNPLHIDPNFAKGAKFPKPILHGMCTYGLSAKALIDKFGMFNEIKARFTGIVFPGETLRVLAWKESDDTIVFQTHVVDRGTIAINNAAIKLVGDKAKI | soluble
13 | MGSDKIHHHHHHMGVMMKQKIKILTVIGLMTVGMSACHNTSKPSNTDSVFSLTGKKRQQIVKQVRQRYYFQQLSKTEQENYLTLYDSLAQFREIISLTPASKKSLIKTIDAFVMDNPEFYWITSADYRFEFSDQTVFVTFPIPEDAKNIYQDLQAIGNDIVANTPSKDRYEQVKYFYEVIIRDTDYNKKAFEAYQSGSQAQVASNQDIKSVFIDHLSVCNGYAQAFQFLCQKAGIPVAYIRGTGTSQQPQQSFAHAWNAVQINNTYYGVDVTWGDPVFDNHLSHQKQGTINYSFLCLPDYLMALSHQPSKDIAFNTKERFENVWTIPSCTDDSLLYSKRHQSYISTFDSDAILASLENQLLNRQEPLSLQFAHQDDYQQMVTDLTTNQTGYHNLFNQYWNNYTGFTYGLLPETLSISFASRN | not soluble
14 | MGSDKIHHHHHHMTWVGVVDAGRHVEATMKLELGFDPRDLLRKLGPGNSIAKFAKNQTIFAQGDEADSVYLLLQGRIKVVVLSAQGKEAATGMVAPGQFFGDGCLVGEATRTTTTIAMQDCLVAAIPSTRLIETLRAQPDFAELFVRHLLLRNRRIEEDLLDQLLNCSEKRLARLLLRLADFEEGGEPQPIAPHISQETLAEMIGTTRSRVSYFMNKFRKLGLISYDRTIEVHPGRLSAVLHDRAEARG | not soluble
15 | MDSINTRIAEELSALPSGRVQPQQVAAAVALLDEGSTVPFIARYRKEVTGSLDDTQLRMLEERLRYLRELEERRGAILASIEEQGKLTPELARDIKLADTKTRLEDLYLPYKQKRRTKGQIALEAGLGALADALFDDPTLVPESEAARFVDAEKGFADVKAVLEGAKYILMERFAEDATLLDKLRVFMKNEATLTARVVPGKEQEGAKFSDYFEHDEPLKSAPSHRALAIFRGRNEGVLSASLKVGEEAPGTLHPCEVMIAERFGLSNQGRAADKWLAEVVRWTWKVKLYTHLETDLFGELRDGAEDEAISVFARNLHDLLLAAPAGPRATLGLDPGLRTGVKVAVVDATGKLLDTATVYPHAPKNQWDQTLAVLAALCAKHQVELIAIGNGTASRETDKLAGELIKKYPGMKLTKIMVSEAGASVYSASELAAKEFPELDVSLRGAVSIARRLQDPLAELVKIEPKSIGVGQYQHDVSQLKLARSLDAVVEDCVNAVGVDVNTASAALLARISGLNSTLAQNIVAHRDANGAFRTRDELKKVSRLGEKTFEQAAGFLRVMNGDNPLDASAVHPETYPLVQRIAADTERDIRSLIGDSAFLKRLDPKKFTDETFGLPTVTDILKELDKPGRDPRPEFKTAEFQEGVESLKDLKPGMVLEGVVTNVTNFGAFVDIGVHQDGLVHISALSEKFVKDPYEVVKAGDIVKVKVMEVDIPRNRVGLSMRMSDTPGEKVEGQRGGRPTGSGQPRQERGAPRGQSAPPANNAMAALFANAKQLKKKHHHHHH | soluble
16 | MSFVPCTTAIYAFSKNHQPVRTVQSGETFVIETYDCFQNQITSSETPFDSIDWNHINPATGPIYIEGAEPGDILAVKIEQIRLKGQGVMAVGPGLGVLGDRIPQFEAKMIPVEENRAVFDEHLSIPLNPMIGVIGVAPSGEDVSCGTPGPHGGNMDTKLITTGATVYFPVFVKGALFALGDLHAAMGDGEIGVSGIEISGEVTVTVRVMKGYSLNHPLLQNDDGIATIVSAKTLDEAVKQSVEEMVNLLLPHTPLTLNHLTMVLSAVGQTQISQVVDPLVTARFFVPRFVLEAYGIRLFED | not soluble
17 | MTDSKYDYSDITPVDINTEEPQICQILYDEDYKQIMGLLLALMKAEEYSERALHITELGINELASHYTIWIYRFNILKNLPNRNLYDELDWCEEIALDNEKNYQIWNYRQLIIGQIMELNNNDFDPYREFDILEAMLSSDPKNHHVWSYRKWLVDTFDLHNDAKELSFVDKVIDTDLKNNSAWSHRFFLLFSKKHLATDNTIDEELNYVKDKIVKCPQNPSTWNYLLGIHERFDRSITQLEEFSLQFVDLEKDQVTSSFALETLAKIYTQQKKYNESRTVYDLLKSKYNPIRSNFWDYQISKLTSV | soluble
